B1: Mothers against decapentaplegic homolog 4 (Homo sapiens), Q13485 (parent)
chain: MDNMSITNTPTSNDACLSIVHSLMCHRQGGESETFAKRAIESLVKKLKEKKDELDSLITAITTNGAHPSKCVTIQRTLDGRLQVAGRKGFPHVIYARLWRWPDLHKNELKHVKYCQYAFDLKCDSVCVNPYHYERVVSPGIDLSGLTLQSNAPSSMMVKDEYVHDFEGQPSLSTEGHSIQTIQHPPSNRASTETYSTPALLAPSESNATSTANFPNIPVASTSQPASILGGSHSEGLLQIASGPQPGQQQNGFTGQPATYHHNSTTTWTGSRTAPYTPNLPHHQNGHLQHHPPMPPHPGHYWPVHNELAFQPPISNHPAPEYWCSIAYFEMDVQVGETFKVPSSCPIVTVDGYVDPSGGDRFCLGQLSNVHRTEAIERARLHIGKGVQLECKGEGDVWVRCLSDHAVFVQSYYLDREAGRAPGDAVHKIYPSAYIKVFDLRQCHRQMQQQAATAQAAAAAQAAAVAGNIPGPGSVGGIAPAISLSAAAGIGVDDLRRLCILRMSFVKGWGPDYPRQSIKETPCWIEIHLHRALQLLDEVLHTMPIADPQPLD
partner: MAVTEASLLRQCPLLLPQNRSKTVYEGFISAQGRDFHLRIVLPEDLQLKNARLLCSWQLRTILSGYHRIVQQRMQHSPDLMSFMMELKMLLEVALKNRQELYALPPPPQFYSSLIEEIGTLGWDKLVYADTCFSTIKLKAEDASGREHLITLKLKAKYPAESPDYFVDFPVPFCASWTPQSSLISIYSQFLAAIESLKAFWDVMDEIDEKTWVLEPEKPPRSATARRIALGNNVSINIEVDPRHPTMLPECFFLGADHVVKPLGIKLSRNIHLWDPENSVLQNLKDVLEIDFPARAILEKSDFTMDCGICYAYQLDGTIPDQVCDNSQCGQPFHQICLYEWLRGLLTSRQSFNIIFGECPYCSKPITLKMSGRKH
B2: Mothers against decapentaplegic homolog 4 (Homo sapiens), Q13485 (parent)
chain: B1 chain
partner: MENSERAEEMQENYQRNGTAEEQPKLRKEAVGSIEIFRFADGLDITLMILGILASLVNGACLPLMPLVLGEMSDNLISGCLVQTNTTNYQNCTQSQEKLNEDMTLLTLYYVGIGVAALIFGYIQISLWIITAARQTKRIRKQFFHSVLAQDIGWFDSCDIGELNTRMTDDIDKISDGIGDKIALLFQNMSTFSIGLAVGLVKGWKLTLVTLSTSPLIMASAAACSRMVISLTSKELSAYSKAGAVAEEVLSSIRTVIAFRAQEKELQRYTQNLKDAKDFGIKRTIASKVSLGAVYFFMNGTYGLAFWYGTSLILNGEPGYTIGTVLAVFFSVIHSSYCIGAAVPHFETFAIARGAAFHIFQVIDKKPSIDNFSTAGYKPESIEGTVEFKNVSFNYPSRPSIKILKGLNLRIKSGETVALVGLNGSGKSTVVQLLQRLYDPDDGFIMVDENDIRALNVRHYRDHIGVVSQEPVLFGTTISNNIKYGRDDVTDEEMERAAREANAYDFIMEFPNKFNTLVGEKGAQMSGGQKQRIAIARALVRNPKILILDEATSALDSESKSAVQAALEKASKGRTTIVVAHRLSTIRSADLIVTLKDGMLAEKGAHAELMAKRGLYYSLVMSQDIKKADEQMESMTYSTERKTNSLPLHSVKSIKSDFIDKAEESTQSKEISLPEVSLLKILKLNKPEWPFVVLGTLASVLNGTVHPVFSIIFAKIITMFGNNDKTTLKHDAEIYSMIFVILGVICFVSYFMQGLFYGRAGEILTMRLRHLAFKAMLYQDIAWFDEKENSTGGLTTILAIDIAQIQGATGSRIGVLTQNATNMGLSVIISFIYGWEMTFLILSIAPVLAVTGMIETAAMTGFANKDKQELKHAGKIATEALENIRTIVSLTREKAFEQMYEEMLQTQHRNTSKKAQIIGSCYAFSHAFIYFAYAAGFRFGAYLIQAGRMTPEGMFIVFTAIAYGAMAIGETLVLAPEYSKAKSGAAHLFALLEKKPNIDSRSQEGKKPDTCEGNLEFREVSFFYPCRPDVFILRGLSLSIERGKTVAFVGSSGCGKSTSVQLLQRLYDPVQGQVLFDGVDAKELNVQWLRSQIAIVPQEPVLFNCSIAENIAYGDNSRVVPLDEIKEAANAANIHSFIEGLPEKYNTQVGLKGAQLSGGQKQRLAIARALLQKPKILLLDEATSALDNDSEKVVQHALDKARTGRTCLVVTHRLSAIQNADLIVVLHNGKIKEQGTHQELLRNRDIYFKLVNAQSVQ
B3: Mothers against decapentaplegic homolog 4 (Homo sapiens), Q13485 (parent)
chain: B1 chain
partner: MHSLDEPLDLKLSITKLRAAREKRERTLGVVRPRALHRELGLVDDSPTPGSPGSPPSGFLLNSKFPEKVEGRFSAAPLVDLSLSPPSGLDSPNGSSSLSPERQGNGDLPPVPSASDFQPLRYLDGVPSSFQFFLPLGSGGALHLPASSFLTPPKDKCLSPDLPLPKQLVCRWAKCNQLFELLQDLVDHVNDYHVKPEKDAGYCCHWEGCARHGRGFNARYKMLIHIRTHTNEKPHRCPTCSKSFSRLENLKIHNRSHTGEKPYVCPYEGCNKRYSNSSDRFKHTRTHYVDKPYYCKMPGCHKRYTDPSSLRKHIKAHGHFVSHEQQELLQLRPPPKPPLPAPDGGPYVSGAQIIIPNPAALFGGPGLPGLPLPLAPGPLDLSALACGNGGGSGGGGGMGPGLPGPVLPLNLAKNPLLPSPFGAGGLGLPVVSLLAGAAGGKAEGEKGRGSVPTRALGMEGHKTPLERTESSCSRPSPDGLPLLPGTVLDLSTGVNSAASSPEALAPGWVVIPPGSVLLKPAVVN
B4: Mothers against decapentaplegic homolog 4 (Homo sapiens), Q13485 (parent)
chain: B1 chain
partner: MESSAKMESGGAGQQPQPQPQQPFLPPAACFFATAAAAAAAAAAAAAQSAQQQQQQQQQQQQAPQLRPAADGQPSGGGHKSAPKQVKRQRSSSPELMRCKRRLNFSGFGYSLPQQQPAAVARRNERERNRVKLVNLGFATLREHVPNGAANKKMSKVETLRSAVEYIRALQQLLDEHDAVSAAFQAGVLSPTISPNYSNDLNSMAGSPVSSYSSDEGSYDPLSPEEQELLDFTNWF
B5: Mothers against decapentaplegic homolog 4 (Homo sapiens), Q13485 (parent)
chain: B1 chain
partner: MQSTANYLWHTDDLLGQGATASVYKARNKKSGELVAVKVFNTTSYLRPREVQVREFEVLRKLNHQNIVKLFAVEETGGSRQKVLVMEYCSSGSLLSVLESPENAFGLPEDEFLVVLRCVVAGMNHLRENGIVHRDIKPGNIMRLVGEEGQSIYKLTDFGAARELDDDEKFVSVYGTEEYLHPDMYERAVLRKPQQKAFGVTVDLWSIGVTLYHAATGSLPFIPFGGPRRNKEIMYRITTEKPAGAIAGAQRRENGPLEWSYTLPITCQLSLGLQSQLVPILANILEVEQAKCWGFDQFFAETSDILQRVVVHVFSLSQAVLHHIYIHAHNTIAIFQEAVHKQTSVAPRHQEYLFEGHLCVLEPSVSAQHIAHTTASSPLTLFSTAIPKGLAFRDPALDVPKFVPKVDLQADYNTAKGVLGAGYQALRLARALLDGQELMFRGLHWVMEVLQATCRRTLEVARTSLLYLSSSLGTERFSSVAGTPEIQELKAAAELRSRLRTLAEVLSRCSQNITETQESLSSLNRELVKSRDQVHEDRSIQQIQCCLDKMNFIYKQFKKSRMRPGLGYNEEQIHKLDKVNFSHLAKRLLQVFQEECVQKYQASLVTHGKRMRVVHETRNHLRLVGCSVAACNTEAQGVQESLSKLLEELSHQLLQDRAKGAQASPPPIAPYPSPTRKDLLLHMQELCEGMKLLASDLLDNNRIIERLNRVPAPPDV
B6: Mothers against decapentaplegic homolog 4 (Homo sapiens), Q13485 (parent)
chain: B1 chain
partner: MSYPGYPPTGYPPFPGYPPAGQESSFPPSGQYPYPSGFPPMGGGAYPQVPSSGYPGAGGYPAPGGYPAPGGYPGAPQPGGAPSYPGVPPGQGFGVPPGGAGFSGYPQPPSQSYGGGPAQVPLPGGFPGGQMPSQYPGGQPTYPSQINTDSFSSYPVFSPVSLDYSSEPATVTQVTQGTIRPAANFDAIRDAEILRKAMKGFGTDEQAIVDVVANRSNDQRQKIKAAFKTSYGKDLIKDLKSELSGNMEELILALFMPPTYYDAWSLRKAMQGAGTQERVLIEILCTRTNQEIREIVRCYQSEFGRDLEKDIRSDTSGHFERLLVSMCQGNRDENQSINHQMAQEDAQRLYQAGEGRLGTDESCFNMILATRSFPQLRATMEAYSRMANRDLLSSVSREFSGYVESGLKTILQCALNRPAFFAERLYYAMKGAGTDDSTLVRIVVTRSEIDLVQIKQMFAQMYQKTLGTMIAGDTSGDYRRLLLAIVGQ
B7: Mothers against decapentaplegic homolog 4 (Homo sapiens), Q13485 (parent)
chain: B1 chain
partner: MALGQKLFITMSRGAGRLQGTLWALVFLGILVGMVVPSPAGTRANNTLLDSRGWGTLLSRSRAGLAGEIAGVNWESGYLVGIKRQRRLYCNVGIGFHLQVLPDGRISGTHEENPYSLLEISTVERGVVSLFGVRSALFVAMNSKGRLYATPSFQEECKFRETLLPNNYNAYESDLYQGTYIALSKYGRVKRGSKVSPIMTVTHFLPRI

Variants of: B1
Conditions: with fancl_human FANCL

effect of a mutation on the interaction | Variant
with no effect | R361H

Variants of: B1
Conditions: with fancl_human FANCL
Remark: another data set of the same source

effect of a mutation on the interaction | Variant
with no effect | G386D

Variants of: B1
Conditions: with fancl_human FANCL
Remark: another data set of the same source

effect of a mutation on the interaction | Variant
increasing interaction strength | G386D

Variants of: B1
Conditions: with fancl_human FANCL
Remark: another data set of the same source

effect of a mutation on the interaction | Variant
with no effect | D351H

Variants of: B2
Conditions: with abcb5_human ABCB5, Q2M3G0

effect of a mutation on the interaction | Variant
with no effect | R361H

Variants of: B2
Conditions: with abcb5_human ABCB5, Q2M3G0
Remark: another data set of the same source

effect of a mutation on the interaction | Variant
with no effect | R361C

Variants of: B2
Conditions: with abcb5_human ABCB5, Q2M3G0
Remark: another data set of the same source

effect of a mutation on the interaction | Variant
with no effect | D351H

Variants of: B2
Conditions: with abcb5_human ABCB5, Q2M3G0
Remark: another data set of the same source

effect of a mutation on the interaction | Variant
with no effect | G386D

Variants of: B3
Conditions: with glis2_human GLIS2, Q9BZE0

effect of a mutation on the interaction | Variant
with no effect | G386D

Variants of: B3
Conditions: with glis2_human GLIS2, Q9BZE0
Remark: another data set of the same source

effect of a mutation on the interaction | Variant
with no effect | R361C

Variants of: B3
Conditions: with glis2_human GLIS2, Q9BZE0
Remark: another data set of the same source

effect of a mutation on the interaction | Variant
with no effect | R361H

Variants of: B3
Conditions: with glis2_human GLIS2, Q9BZE0
Remark: another data set of the same source

effect of a mutation on the interaction | Variant
with no effect | D351H

Variants of: B4
Conditions: with ascl1_human ASCL1, P50553

effect of a mutation on the interaction | Variant
with no effect | D351H

Variants of: B4
Conditions: with ascl1_human ASCL1, P50553
Remark: another data set of the same source

effect of a mutation on the interaction | Variant
with no effect | G386D

Variants of: B4
Conditions: with ascl1_human ASCL1, P50553
Remark: another data set of the same source

effect of a mutation on the interaction | Variant
with no effect | R361C

Variants of: B4
Conditions: with ascl1_human ASCL1, P50553
Remark: another data set of the same source

effect of a mutation on the interaction | Variant
with no effect | R361H

Variants of: B5
Conditions: with ikke_human IKBKE

effect of a mutation on the interaction | Variant
with no effect | G386D

Variants of: B5
Conditions: with ikke_human IKBKE
Remark: another data set of the same source

effect of a mutation on the interaction | Variant
with no effect | D351H

Variants of: B6
Conditions: with anxa7_human ANXA7, P20073

effect of a mutation on the interaction | Variant
with no effect | R361H

Variants of: B6
Conditions: with anxa7_human ANXA7, P20073
Remark: another data set of the same source

effect of a mutation on the interaction | Variant
with no effect | R361C

Variants of: B6
Conditions: with anxa7_human ANXA7, P20073
Remark: another data set of the same source

effect of a mutation on the interaction | Variant
with no effect | D351H

Variants of: B6
Conditions: with anxa7_human ANXA7, P20073
Remark: another data set of the same source

effect of a mutation on the interaction | Variant
with no effect | G386D

Variants of: B7
Conditions: with fgf6_human FGF6, P10767

effect of a mutation on the interaction | Variant
with no effect | D351H

Variants of: B7
Conditions: with fgf6_human FGF6, P10767
Remark: another data set of the same source

effect of a mutation on the interaction | Variant
with no effect | G386D
